Where a SMILES comes first, the peptide text is derived from it. Where no end group is shown, it is not given here.

Assay [1] has as its target T1, p6–UEV interaction (Homo sapiens, UniProt Q99816).
T1 sequence (Q99816 2-145 limits assumed): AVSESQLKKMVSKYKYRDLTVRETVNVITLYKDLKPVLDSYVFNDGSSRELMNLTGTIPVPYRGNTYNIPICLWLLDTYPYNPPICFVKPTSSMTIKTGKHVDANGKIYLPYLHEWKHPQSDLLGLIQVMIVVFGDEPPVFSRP
Kind of assay: sandwich ELISA monitoring disruption of the p6–UEV PPI. The assay is classed as binding, HIV p6 / human UEV (TSG101). Background: In an ELISA, binding on a coated surface is turned into a signal by an enzyme label.

Assay [2] has as its system GAG-mediated budding of virus-like particles from HEK293T cells. Kind of assay: virus-like particle budding assay. The assay is classed as cell-based, human. The following applies: 25 μM.
In assay [3] the target is T2, His6-UEV (ubiquitin E2 variant domain of the human TSG101 protein) (human, UniProt Q99816 2-145).
T2 sequence: T1 sequence (Q99816 2-145 limits assumed)
Nature of the assay: fluorescence polarisation. A general note: Fluorescence polarisation rises when a labelled molecule tumbles more slowly, as on binding a larger partner.

For assay [4], the target named is T2, His6-UEV (ubiquitin E2 variant domain …). Kind of assay: ELISA.

Consider `CC[C@H](C)[C@@H]1NC(=O)[C@H](Cc2c[nH]c3ccccc23)NC(=O)CNC(=O)[C@H](CO)NC(=O)[C@H](C(C)C)NC(=O)[C@H](CC(N)=O)NC(=O)[C@H](Cc2c[nH]c3ccccc23)NC(=O)[C@H](Cc2ccc(O)cc2)NC1=O` [CP11] (cyclo(GWIYWNVS)), for which the midpoint of inhibition in assay [1], the IC50, lay at 30.2 ± 2.2 µM.
Turning to CGRKKRRQRRRPPQ [Tat], the “effect on viral budding” value in assay [2] is given as “no effect”.

B1: N-terminal FITC-labeled peptide 3 (peptide)
chain: GVAGGAACLHFFLSMPPSHVLDIC
modifications: FITC on the N-terminus; two non-overlapping lanthionine (thioether) rings
B1 came in with a Kd in assay [3] of 5.5 µM.

B2: FITC labelled PTAP peptide (GGPEPTAPPEE) (peptide)
peptide: GGPEPTAPPEE
modifications: also: FITC label, position not given here
With B2, in assay [3], the Kd was 16.6 µM. This Kd is about 3-fold higher than that of the molecule before.

B3: GST-p6 (GST-tagged HIV p6 protein) (natural protein)
chain: LQSRPEPTAPPEESFRSGVETTTPPQKQEPIDKELYPLTSLRSLFGNDPSSQ
In assay [4], B3 showed an EC50 of 0.948 µM.

In general, IC50 refers to the point on the concentration scale where inhibition reaches its midpoint. A lower IC50 goes with greater potency. As usually defined, the Kd is the constant that tells how readily two partners part at equilibrium. By EC50 is commonly meant the concentration giving half of the maximal effect.
